Where a chain is given by its changes, count along the chain named. Numbers in names are those of the source.
How the values were obtained:
[1] = target: UBE2S^UBC (UBC domain of UBE2S, residues 1-156) (human) (UniProt Q16763); experiment: cross-linking + SEC-MALS
Cys118 = Cys118 (UniProt position 118, LLTIKCLLIHP); experiment: chemical modification; conditions: 10 °C; 100 mM NaCl; Free reduced enzyme, 14.4 μM, no ubiquitin or other ligand
Cys95 = Cys95 (UniProt position 95, ANGEICVNVLK); experiment: chemical modification; conditions: 10 °C; 100 mM NaCl; Free reduced enzyme, 14.4 μM, no ubiquitin or other ligand
[2] = target: T1, UBE2S (full-length, untagged, purified) (human), Q16763; experiment: cross-linking + SEC-MALS; conditions: remark: other sources report otherwise
T1 chain: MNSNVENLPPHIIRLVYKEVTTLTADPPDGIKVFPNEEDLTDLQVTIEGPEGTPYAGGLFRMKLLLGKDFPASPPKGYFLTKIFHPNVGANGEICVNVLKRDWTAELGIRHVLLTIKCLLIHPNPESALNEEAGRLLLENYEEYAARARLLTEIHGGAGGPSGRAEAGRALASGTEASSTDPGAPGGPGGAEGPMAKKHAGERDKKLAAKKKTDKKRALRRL

cross-linking = target: the molecule itself; experiment: cross-linking

With “UBE2S^UBC (UBC domain of UBE2S, residues 1-156) (from UniProt Q16763 1-156) (domain or fragment)” as the molecule, how does the stoichiometry N [1] read?
Its stoichiometry N is 2.

For “Ubiquitin-conjugating enzyme E2 S (UBE2S) C95S variant (Homo sapiens; C95S)”, which pKa (Cys118) is on record?
Its pKa is 9.4 ± 0.1.

Which pKa (Cys95) does the source give for “Ubiquitin-conjugating enzyme E2 S (UBE2S) C118S variant (Homo sapiens; C118S)” here?
The pKa was 6.4 ± 0.2.

B1: UBE2S (full-length, untagged, purified), Q16763 1-222 (enzyme)
chain: T1 chain
B1 was tested. Which stoichiometry N [2] did it give?
The stoichiometry N was 2.

B2: UBE2S C95S (full-length) (enzyme)
chain: T1 chain with C95S
Does B2 bind (cross-linking)?
Result: binds

Source: article PMC7613103 (Science signaling, 2020)
